Source: paper PMC3997080

Biological target: αB-crystallin deletion mutant lacking residues 54FLRAPSWF61 (αBΔ54–61) (human) (UniProt P02511)
Experiment: SEC-MALS

stoichiometry N (subunits/oligomer): 20
Substance: αB-crystallin deletion mutant lacking residues 54FLRAPSWF61 (αBΔ54–61) (from UniProt P02511 1-175) (natural protein)
